Article PMC6532428 (Circulation, 2019)

Target: His-p65 fusion protein (UniProt Q04206 1-551)
Assay: pull-down

Chain of His-p65 fusion protein (Q04206 whole entry, the tested form may be a part): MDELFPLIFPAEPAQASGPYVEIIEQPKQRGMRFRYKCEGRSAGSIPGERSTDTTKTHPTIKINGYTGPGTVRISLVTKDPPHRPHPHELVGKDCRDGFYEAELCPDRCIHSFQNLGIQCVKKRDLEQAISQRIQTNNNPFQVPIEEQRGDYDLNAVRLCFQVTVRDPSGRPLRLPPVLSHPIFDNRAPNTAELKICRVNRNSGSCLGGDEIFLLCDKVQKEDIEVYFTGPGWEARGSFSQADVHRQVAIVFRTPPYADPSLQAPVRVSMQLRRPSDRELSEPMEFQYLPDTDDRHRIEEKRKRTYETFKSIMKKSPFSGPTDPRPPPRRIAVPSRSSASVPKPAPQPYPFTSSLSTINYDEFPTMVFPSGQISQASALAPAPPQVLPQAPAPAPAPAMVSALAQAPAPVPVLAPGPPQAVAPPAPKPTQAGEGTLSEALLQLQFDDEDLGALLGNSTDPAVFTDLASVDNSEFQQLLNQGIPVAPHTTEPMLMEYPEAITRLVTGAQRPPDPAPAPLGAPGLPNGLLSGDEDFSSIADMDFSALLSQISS

- binding result: binds
B1: GST-RhoE recombinant protein (natural protein, UniProt P61587 1-244, looked up)
chain: MKERRASQKLSSKSIMDPNQNVKCKIVVVGDSQCGKTALLHVFAKDCFPENYVPTVFENYTASFEIDTQRIELSLWDTSGSPYYDNVRPLSYPDSDAVLICFDISRPETLDSVLKKWKGEIQEFCPNTKMLLVGCKSDLRTDVSTLVELSNHRQTPVSYDQGANMAKQIGAATYIECSALQSENSVRDIFHVATLACVNKTNKNVKRNKSQRATKRISHMPSRPELSAVATDLRKDKAKSCTVM
